Data taken from patent publication US12269859B2, “Synthetic immune receptors and methods of use thereof” (Angeles Therapeutics, Inc., priority 2016, dated 2025).

System: target antigen-expressing cell line
Assay: Jurkat NFAT-GFP assay, coculture with target cell lines expressing the respective target antigen (summary Table 10A)
Assay type: cell-based, human
Parameters: key: The signs +/−, +, 2+ etc. after the name of the cell lines indicate the relative degree of positivity on the Jurkat-NFAT-GFP assay as measured by the % GFP positive cells; +: relative degree of positivity on the Jurkat-NFAT-GFP assay as measured by the % GFP positive cells; 2+: relative degree of positivity on the Jurkat-NFAT-GFP assay as measured by the % GFP positive cells
Settings: SIR-expressing Jurkat-NFAT-GFP cells cocultured with L428; relative % GFP positive cells
How it was run: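 Stable SIR expression in Jurkat-NFAT-GFP cells by lentiviral transfer and puromycin selection; coculture with target cells (E:T approximately 1:2) for 4 to 18 hours; flow cytometric measurement of NFAT-driven GFP; scoring as positive when % GFP-positive cells exceeds that of parental reporter cells.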

B1: 012517-J12 (protein)
chain: MALPVTALLLPLALLLHAARPLEGKPIPNPLLGLDSTGSGEDLKNVFPPEVAVFEPSKAEIAHTQKATLVCLATGFYPDHVELSWWVNGKEVHSGVCTDPQPLKEQPALNDSRYCLSSRLRVSATFWQNPRNHFRCQVQFYGLSENDEWTQDRAKPVTQIVSAEAWGRADCGITSASYHQGVLSATILYEILLGKATLYAVLVSALVLMAMVKRKDSRGRAKRSGSGATNFSLLKQAGDVEENPGPTSMALPVTALLLPLALLLHAARPDIQMTQSPASLSASLGETVTIECRTSKDIYSNLAWFQQEPGNSPQLLIYDASNLADGVPSRFSGSGSGTQYSLQINNLQSEDVASYFCHQYNNYPYTFGTGTKLELKGGGGSGGGGSGGGGSQVQLQESGPTLVNPGDSVKMSCKASGYTFTDHIIHWVKQSHGKSLEWIGYINPYSGGANYNGKFKSKATLTIDKSSSTAYMEFSRLTSGDSAIYYCALNYGSYYAMDAWGQGTSVTVSSTREQKLISEEDGSGIQNPDPAVYQLRDSKSSDKSVCLFTDFDSQTNVSQSKDSDVYITDKCVLDMRSMDFKSNSAVAWSNKSDFACANAFNNSIIPEDTFFPSSDVPCDVKLVEKSFETDTNLNFQNLSVIGFRILLLKVAGFNLLMTLRLWSSRAKRSGSGVKQTLNFDLLKLAGDVESNPGPSRGHMTEYKPTVRLATRDDVPRAVRTLAAAFADYPATRHTVDPDRHIERVTELQELFLTRVGLDIGKVWVADDGAAVAVWTTPESVEAGAVFAEIGPRMAELSGSRLAAQQQMEGLLAPHRPKEPAWFLATVGVSPDHQGKGLGSAVVLPGVEAAERAGVPAFLETSAPRNLPFYERLGFTVTADVEVPEGPRTWCMTRKPGA
NFAT-GFP ASSAY Positive Cell lines: L428: L428 (2+)

B2: 012517-G12 (protein)
chain: MALPVTALLLPLALLLHAARPLEGKPIPNPLLGLDSTGSGEDLKNVFPPEVAVFEPSKAEIAHTQKATLVCLATGFYPDHVELSWWVNGKEVHSGVCTDPQPLKEQPALNDSRYCLSSRLRVSATFWQNPRNHFRCQVQFYGLSENDEWTQDRAKPVTQIVSAEAWGRADCGITSASYHQGVLSATILYEILLGKATLYAVLVSALVLMAMVKRKDSRGRAKRSGSGATNFSLLKQAGDVEENPGPTSMALPVTALLLPLALLLHAARPDFVMTQSPDSLAVSLGERVTMSCKSSQSLLNSGNQKNYLTWYQQKPGQPPKLLIYWASTRESGVPDRFSGSGSGTDFTLTISSLQAEDVAVYYCQNDYSYPYTFGQGTKLEIKGGGGSGGGGSGGGGSQVQLVQSGAELKKPGASVKVSCKASGYTFTDYYMKWVRQAPGQGLEWIGDIIPSNGATFYNQKFKGRVTITVDKSTSTAYMELSSLRSEDTAVYYCARSHLLRASWFAYWGQGTLVTVSSTREQKLISEEDGSGIQNPDPAVYQLRDSKSSDKSVCLFTDFDSQTNVSQSKDSDVYITDKCVLDMRSMDFKSNSAVAWSNKSDFACANAFNNSIIPEDTFFPSSDVPCDVKLVEKSFETDTNLNFQNLSVIGFRILLLKVAGFNLLMTLRLWSSRAKRSGSGVKQTLNFDLLKLAGDVESNPGPSRGHMTEYKPTVRLATRDDVPRAVRTLAAAFADYPATRHTVDPDRHIERVTELQELFLTRVGLDIGKVWVADDGAAVAVWTTPESVEAGAVFAEIGPRMAELSGSRLAAQQQMEGLLAPHRPKEPAWFLATVGVSPDHQGKGLGSAVVLPGVEAAERAGVPAFLETSAPRNLPFYERLGFTVTADVEVPEGPRTWCMTRKPGA
NFAT-GFP ASSAY Positive Cell lines: L428: L428 (+/−)
